Assay: soluble on expression in E. coli; label from the status in PepcDB or PDB records

Sequence | soluble on expression in E. coli
MSLSAQGSQDGRFAGQLALVTGASRGIGAATAKALAAQGAHVVLVARTAKELEKVEEEIFEAGGSATIAPVDLSEPEGIARLATAISGRWSALDVLVINAAAFPTLTPVWQIDSREFNNALTLNVLATQALLAGFDGMLKKSKDARVIGVTSSVGATPRAYWGAYGASKAAFDVLLDCYAQEVRNTSAVRVAILDPGATRTKMRARAYPGENPESVKAPEVVAERMVALLGEQFSSPHRERVNQDEGHHHHHH | soluble
MGSDKIHHHHHHMKKTIIISMLLAAGAATYYFTQQTETPKGPRGRPTPNVVVAKAEMQPIRDEVEALGTGKANESITVTPKVTDMVTEINFNDGQMVDKGQLLVRLQDREQIARVTVARVKMKDHERELARISSLVTSQTVAALERDRLQTLIDTAKAELDQAESSLKDRRILAPFSGRLGLRQVSQGSLVTPGTVITTLDDISTIKLDFSVPERFLQSLAIGKSVEASAVAFEGELFTGKVVSVDSRINPTTRAVTVRAEIPNKGMRLLPGMLMKVKLIKQSREALIIPEAAIIPIQKDHFVYLVNDENVVERRQVQLGLRKRGWVEIVGGVDVGEQVMVRGILKVRPGDTVKVQYSEHFSFNQQAKVEPLA | not soluble
MSLDSIELMAKIHASARWSEAALQILADETRRILKHEAGTRAGEDPEQLHQMRVGIRRLRSALRLFEPALKLPKPARRRSLSPLAAVLGSVRDLDVQMEMLRERYLGALPEGEQQALERLLAHLESLRTQARSAMLRYLDGLDYEQFKSAYTEFLESPKFRRGADESLYHLLPAFLREALSTLWAHPGWEEPDVETMHDLRIAVKRVRYNLEFFLGCYGKAVRSLHGELKRIQEELGIIHDCDVLLGQLHTEPLGPATPWQQPFSRLTALVRNERRNAVRRFRRLKTRLLSEDMRNSLAVWVSWPGTADDEGHHHHHH | not soluble
MNRQPIVQLSNLSWTFREGETRRQVLDHITFDFEPGEFVALLGQSGSGKSTLLNLISGIEKPTTGDVTINGFAITQKTERDRTLFRRDQIGIVFQFFNLIPTLTVLENITLPQELAGVSQRKAAVVARDLLEKVGMADRERTFPDKLSGGEQQRVAISRALAHNPMLVLADEPTGNLDSDTGDKVLDVLLDLTRQAGKTLIMATHSPSMTQHADRVVNLQGGRLIPAVNRENQTDQPASTILLPTSYE | not soluble
MSLEQKWKWWEEERYPEGIKWKFLEHKGPVFAPPYEPLPENVKFYYDGKVMKLSPKAEEVATFFAKMLDHEYTTKEIFRKNFFKDWRKEMTNEEKNIITNLSKCDFTQMSQYFKAQTEARKQMSKEEKLKIKEENEKLLKEYGEGHHHHHH | soluble
MSLSLDQESIEHDLKLTSEEIFHSNGKYIPPMLNTLGQHLSVRKEFFQNFLTFVAKNFNYKISPELKLDLIEKFEILNCCIKFNSIIRQSDVLNDIWEKTLSNYNLTQNEHLTTKTVVINSPDVFPVIFKQFLNHVVFVLFPSQNQNFKLNVTNLINLCFYDGILEEGEKTIRYELLELDPMEVDTSKLPWFINFDYLNCINQCFFDFTFACEEEGSLDSYKEGLLKIVKILYYQFNQFKIWINTQPVKSVNANDNFININNLYDDNHLDWNHVLCKVNLKEQCIQIAEFYKDLSGLVQTLQTLDEGHHHHHH | not soluble
MSLKGYYSNKISLEDLNKNIEDKKEQTIYFYQTSCVHCQKVSPIVVPLAKDLNVDMKVIDIENLNEPWDKYNIQGTPTIIHFKDGKEVSRISGEQSKDKFKEWFEQTKKEGHHHHHH | soluble
GPGSMPTAKVTEKEAACVTALKGEYPASKADPADAGFLSDSTYLRFARAHDGNVKKASELLGATLRWRKQTKPYAITMEEVQNAMKQTTMYCGGRCNIGCPVIAMVPGMQNDCTVEERTKQLVYIMEETHRKGYERITWIIDFGAMGSHRDERSKEARKETMKILQDYYPERMARILLYRTPWYIRMLLGAAKMFMDARTAAKVYNAGRTIEALEKFVDRDQVPPVCGGTMKGSALSHLEELPSLNSE | not soluble
MAVAGFSPIKLIWKNSRHDLVLAGQAGLSYKNNNYLYMDVDNKHAMARTYANGKFSLGARMAYEYRISNTLGAGATATYEFGGEVFAALATFNVHF | not soluble
MGSDKIHHHHHHMTHDDVIQAIVNTIRDVPGIRALFLSGSYGNGLADEYSDIDFVLVSEDGATDAVAEAWRNAVEKTGEIVLWWDRTTVPVLINAITEDWTRTDVIILKPDQMGRQTKDALKPLFDHDNIYDTLKDAAPKPGPDLKRFRYEVEEFIRILGLLQLAVGREEYINGVLGVSLLRSKLVNLLIEETDAPNRGGILHLNRLITEDQKQVLISLPPAVPERDAMISAHLAYAAAYLPRARRRAERLGMEWPERFEAVTWSRLEKTLSIRRPYD | not soluble
MRNHYMSMYDMRQFFKTYFSSASEKSILVKLLDKRFHPPSHTANILDLGCHDGALMKNIVNAYAKRLPEKLVITGVDPSLQAIKEYAKADFPIPVQTNTFAGTAEDYFDVCTDHFDWIFASQCLYWSPDLPKIIKQIHETGDSALIVIRGCHGIYEIQSQFRHYIGNHLEKFYTDKEVEMALRTQKILFQKESLSTSIRLPDKDSIELKWLILFFLQMEEESLGDKIFCEVRDWITSRTSGSIHHEVHFFWLGNAILQGITI | not soluble
MPVTLSFGNRHNYEINHSRLARLMSPDKEEALYMGVWDRFKDCFRTHKKQEVLEVLYTLIHGCERENQAELNVDITGMEKIHAFTQLKEYANPSQQDRFVMRFDMNQTQVLFEIDGKVIDKCNLHRLLNVSENCIFKVMEEDEEELFLKICIKYGEKISRYPELLEGFANKLKDAVNEDDDVKDEVYKLMRSGEDRKMECVEWNGTLTEEEKNKLRCLQMGSFNITTQFFKIGYWELEGEVLFDMVHPTLSYLLQAYKPSLSSDLIETNTMLFSDVLNKDYDDYQNNKREIDAILRRIYRSHNNTLFISEKSSCRNMLI | not soluble
GGNLEEMNIDPDNATQTHPKLLLTQICMNAFKRGTDGMYATKKVIQADGESADQYYKWTRGSFGYYDNLRNVQKMGEEAERVNAPVYTALTKFFRAYYFYELTLRFGDIPYSQALKGEKEEIYTPEYDAQEDVFAGILQELREADEILANDASVIDGDIIYNGNSTQWRKLINSFRLKVLMTLSNHTTVGNINIASEFKNIATNSPLMNSLADNGQLVYLDQQGNRYPQFNAQWSGYYMDDTFIQRMRERRDPRLFIFSAQTNKGKTEGKPIDDFSSYEGGDPAAPYSDAIIKVSEGTISPINDRFRTDPIVEPTMLMGYAELQQILAEAVVRGWISGNAQTYYEKGIRASFSFYETHAKDYAGYLNENAVAQYLKEPLVDFTQASGTEEQIERIIMQKYLVTFYQGNWDSFYEQLRTGYPDFRRPAGTEIPKRWMYPQGEYDNNGTNVETAITRQFGAGNDKINQATWWQKKS | soluble
MAHHHHHHMDTPEREVSPPPAEEDENKKRVIIILEGAHLQLIETKRYIYELANIMKHKHLLRDQKNEEEMRNFRPDILHQCLIHLLESALNKYGLLQVYIKTHDNQLFYVSSHLKIPKTYDQFESLMVTFLRKYKIKANEKNLCLLKFLKNDYSAILPINGKKIGLSVKGKKVHFSEYVQNLQNEDVPVTFFIGAVAYSNPITKLENLDDNICISEFSLSAATCCSTICSEFENLLGLF | soluble
MGSDKIHHHHHHMVKKIMLHGATDYGSSNYGDYLYGEIVYDLLESKGYEVSFYNPSDFFQMYLKEYRQKQSFTKKQADAILYIPGGYFGEGHNARFRDNLIQFKRFLPLGIWASYFKKPIGVLGIGAGPNNDSLMNYGIKRIINHAQFITVRDRESFDSLKHLSPSAPVHETFDLIISSKLREEKTEQLCQLKREAKDKKIILVHYNHSKKALEKFAESISLFLENNPNYYVVVTSDSILPYEDAYYQEFRKLVRTEDCFQFKYHSPAEMTSLLKMVDVVLTCKLHVGVVATCFNKSVIAIACHPEKTARYYGAIGELQRCESLFDSSVNSIVKKLETFHLKPITIPSELVLKARSSLDYLDLFLEGLVRES | not soluble
GPMSAQDVENAVEAALDPSVGPIIKQQATDFIGSLRSSSTGWKICHEIFSEKTKYKPSTRLICLQTLSEKVREWNNESNLLELQMIRDSVWSYIKELSFLDEPAYISNAVQHLLTLLFLQLYPSNWNDFFASLQGVIAASSQSEFSNFYLKVLLSIGDEIADSLVLKTDVQIQKDNLVKDAIRANDMSDIVSFVYEMMLAYSNAKNYGTVGLCLQVYAQWVSWININLIVNEPCMNLLYSFLQIEELRCAACETMTEIVNKKMKPLEKLNLLNILNLNLFFSKSQEQSTDPNFDEHVAKLINAQGVELVAIKSDPSELSPELKENCSFQLYNLFPYLIRYLSDDYDETSTAVFPFLSDLLVSLRKESSSKELSASLKEFLKSLLEAIIKKMKYDESQEWDDDPDSEEEAEFQEMRKKLKIFQDTINSIDSSLFSSYMYSAITSSLSTAATLSPENSWQLIEFALYETYIFGEGLRGPDAFFNEVDKSPTVLSQILALVTTSQVCRHPHPLVQLLYMEILVRYASFFDYESAAIPALIEYFVGPRGIHNTNERVRPRAWYLFYRFVKSIKKQVVNYTESSLAMLGDLLNISVSPVTDMDAPVPTLNSSIRNSDFNSQLYLFETVGVLISSGNLTPEEQALYCDSLINALIGKANAALSSDLSALENIISVYCSLMAIGNFAKGFPARGSEEVAWLASFNKASDEIFLILDRMGFNEDIRGAVRFTSGRIINVVGPDMLPKVPQLISILLNSIDMNELVDVLSFISQLIHIYKDNMMEITNRMLPTLLMRIFSSLSAAPQGTDDAVKQNDLRKSYISFILQLLNKGFGSILFTEENQVYFDPLINSILHFANLVGEPATQKSSIALVSKMVSLWGGKDGIAGFENFTLSLTPLCFEMPVNPNFNTRDGQSLVVLGELAGLQKIILEKLGDIYKSYLVTVYFPTVNFPDVMASEYLQALSNLDSRSFKQFFQKFIQALKSGNV | soluble
MSDNDELQQIAHLRREYTKGGLRRRDLPADPLTLFERWLSQACEAKLADPTAMVVATVDEHGQPYQRIVLLKHYDEKGMVFYTNLGSRKAHQIENNPRVSLLFPWHTLERQVMVIGKAERLSTLEVMKYFHSRPRDSQIGAWVSKQSSRISARGILESKFLELKQKFQQGEVPLPSFWGGFRVSLEQIEFWQGGEHRLHDRFLYQRENDAWKIDRLAP | soluble
MEINVDQINLMTKKGLRGDLKNFESVLDFLEKYGNATIVKYGMYSLVFQIAMNKFIDISKECEECGGKCCQIGYPVPVYGFDYEELRNKLSMEDLKKLEKVDSNLFLLRRPCKFQKGWYCSIHKFKPYACLSYPFATEDEQRDAINSYDGKGIPDLEHHHHHH | not soluble
MSLPFITKISTQKKNTERFNIFLDDKYAFSVDADVLVKFELKKGKELDDLDIIEIQYGDEVKKGFNRALDFLSYRMRSTKEVEDHLKKKETSPPVIAEVIHRLNDYKYLNDQEFAAAYVSTHKKTNGKGPDVLFRELRAKGIDDDTIKEALSSFSFEDQTREAVKHVEKLLKKDKKLSTKELKQRAQLQLQRKGFSFDVISAAMDQIEYENDEDTEKEALRLHAEKAFRKYRYDGSYESAMKVKQFLFRKGFSLDLIEQLLQEEEYEGHHHHHH | soluble
SMAFKIQLDTLGQLPGLLSIYTQISLLYPVSDSSQYPTIVSTFEQGLKRFSEAVPWVAGQVKAEGISEGNTGTSFIVPFEDVPRVVVKDLRDDPSAPTIEGMRKAGYPMAMFDENIIAPRKTLPIGPGTGPDDPKPVILLQLNFIKGGLILTVNGQHGAMDMVGQDAVIRLLSKACRNDPFTEEEMTAMNLDRKTIVPYLENYTIGPEVDHQIVKADVAGGDAVLTPVSASWAFFTFSPKAMSELKDAATKTLDASTKFVSTDDALSAFIWKSASRVRLERIDGSAPTEFCRAVDARPAMGVSNNYPGLLQNMTYHNSTIGEIANESLGATASRLRSELDPASMRQRTRGLATYLHNNPDKSNVSLTADADPSTSVMLSSWAKVGLWDYDFGLGLGKPETVRRPIFEPVESLMYFMPKKPDGEFCAALSLRDEDMDRLKADKEWTKYAQYVG | soluble
